# Experimental data as given in PMC9045774, “The prominent role of a CDR1 somatic hypermutation for convergent IGHV3-53/3-66 antibodies in binding to SARS-CoV-2” (Emerging Microbes & Infections, 2022).
# Target: T1, SARS-CoV-2 receptor-binding domain (RBD) (SARS-CoV-2, ancestral (Wuhan-Hu-1) …, UniProt P0DTC2)
# T1 construct: also called SARS-CoV-2 RBD
# Assay: not stated; binding affinities of the residue-27 germline revertants of BD-236, COVOX-222 and CV30 (supplementary Fig. S5); method not named in the sentence (BLI in the experiments around it)
Binder,fold decrease of affinity against COVOX-222 [fold],fold decrease of affinity against BD-236 [fold]
"COVOX-222, germline format at residue 27 (reverse mutation) (antibody, V domains shown, as the heavy chain of m12 (PDB 7NX6) with residue 27 reverted to the germline F; as the light chain of m12; also called germline format of COVOX-222) VH: EVQLVESGGGLIQPGGSLRLSCAASGFTVSSNYMSWVRQAPGKGLEWVSVIYSGGSTFYADSVKGRFTISRDNSKNTLYLQMNSLGAEDTAVYYCARGEGSPGNWFDPWGQGTLVTVSS VL: DVVMTQSPGTLSLSPGERATLSCRASQSVPSSYLAWYQQKPGQAPRLLIYGASTRATGIPDRFSGSGSGTDFTLTISRLEPEDFAVYYCQHYDTSPRFGGGTKVDIK",2.02,
"BD-236, germline format at residue 27 (reverse mutation) (antibody, V domains shown, as the heavy chain of m10 (PDB 7CHB) with residue 27 reverted to the germline F; as the light chain of m10) VH: EVQLVESGGGLIQPGGSLRLSCAASGFTVSSNYMSWVRQAPGKGLEWVSVIYSGGSTDYADSVKGRFTISRDKSKNTLYLQMNSLRAEDTAVYYCARDLGEAGGMDVWGQGTTVTVSS VL: AIQLTQSPSSLSASVGDRVTITCRASQGISSYLAWYQQKPGKAPKLLIYAASTLQSGVPSRFSGSGSGTDFTLTISSLQPEDFATYYCQQLNSYPPAFGGGTKVEIK",,1.37
